Biological target: T1, EGFR on A431 cell line (overexpresses EGFR) (UniProt P00533 25-1210)
T1 construct: whole, on cells; also called A431 cells; cells overexpressing EGFR
Assay: cell ELISA on A431 cells attached to the plate, antibody titrated
Description: Binding capacity between the antibody obtained in 5 and the A431 cell line (ATCC) which overexpresses EGFR is determined by ELISA [Biological efficacy of a chimeric antibody to the epidermal growth factor receptor in a human tumor xenograft model, Clinic. Cancer res., 1995, vol. 1, 1311-1318] (the entire contents of which are incorporated herein by reference). The protocol for the ELISA assay is similar to that described in 6 above, except that antibody was used over a range of concentration and A431 cells were attached to the plate.

Kd: 1.09 nM
B1: Erbb1 78 clone antibody (fully human full-length IgG) (antibody, V domains shown)
VH: QMQLVQSGGGVVRPGGSLRLSCAASGFTFDDYGMSWVRQAPGKGLEWVSGINWNGGSTGYADSVKGRFTISRDNAKNSLYLQMNSLRAEDTAVYYCARDYWGSLDYWGQGTLITVSS
VL: QSALTQPASVSGSPGQSITISCTGTSSDVGGYNYVSWYQQNSGKAPKLMIHDVNRRPSGVSNRFSGSKSGNTASLTIAGLQADDEADYYCSSYVSTNTYVFGTGTKVTVL
notes: also called Erbb1-78 antibody
